What was measured:
[1] = target: T1, human CDH3-his protein (Kactus, Cat. No. CDH-HM103) (human, UniProt P22223 108-654, limits assumed); assay: ELISA, antigen coated at 1 ug/mL
T1 construct: Bought; also called human CDH3 protein

[2] = target: T2, mouse CDH17-his (Kactus, Cat. No. CDH-MM117) (mouse, UniProt Q9R100 23-786, limits assumed); assay: ELISA, antigen coated at 1 ug/mL
T2 construct: Bought; also called mouse CDH17 protein
T2 sequence (looked up): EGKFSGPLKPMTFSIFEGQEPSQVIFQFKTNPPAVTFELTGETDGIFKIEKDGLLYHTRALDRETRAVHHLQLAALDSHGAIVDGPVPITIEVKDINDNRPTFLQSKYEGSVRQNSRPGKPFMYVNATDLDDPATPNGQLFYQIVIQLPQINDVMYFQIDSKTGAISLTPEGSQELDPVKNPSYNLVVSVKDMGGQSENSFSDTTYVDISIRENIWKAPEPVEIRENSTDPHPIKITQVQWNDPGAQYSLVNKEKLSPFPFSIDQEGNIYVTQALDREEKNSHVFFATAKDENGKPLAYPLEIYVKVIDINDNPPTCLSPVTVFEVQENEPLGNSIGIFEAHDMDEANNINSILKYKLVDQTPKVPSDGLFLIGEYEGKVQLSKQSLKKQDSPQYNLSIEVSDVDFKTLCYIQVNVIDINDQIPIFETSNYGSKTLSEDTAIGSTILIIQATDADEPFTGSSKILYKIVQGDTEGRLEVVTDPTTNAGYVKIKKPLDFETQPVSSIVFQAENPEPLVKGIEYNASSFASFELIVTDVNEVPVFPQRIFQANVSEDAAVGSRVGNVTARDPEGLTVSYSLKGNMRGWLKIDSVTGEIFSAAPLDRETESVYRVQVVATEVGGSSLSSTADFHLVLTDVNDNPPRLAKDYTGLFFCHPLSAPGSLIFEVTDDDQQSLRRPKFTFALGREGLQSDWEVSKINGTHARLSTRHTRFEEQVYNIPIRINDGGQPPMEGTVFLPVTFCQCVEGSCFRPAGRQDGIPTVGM

[3] = target: T3, rhesus CDH17-his (Kactus, Cat. No. CDH-RM117) (rhesus, UniProt A0A1D5R2B4 23-784); assay: ELISA, rhesus CDH17-his coated at 1 ug/mL
T3 construct: range 23-784; also called rhesus CDH17 protein
T3 sequence: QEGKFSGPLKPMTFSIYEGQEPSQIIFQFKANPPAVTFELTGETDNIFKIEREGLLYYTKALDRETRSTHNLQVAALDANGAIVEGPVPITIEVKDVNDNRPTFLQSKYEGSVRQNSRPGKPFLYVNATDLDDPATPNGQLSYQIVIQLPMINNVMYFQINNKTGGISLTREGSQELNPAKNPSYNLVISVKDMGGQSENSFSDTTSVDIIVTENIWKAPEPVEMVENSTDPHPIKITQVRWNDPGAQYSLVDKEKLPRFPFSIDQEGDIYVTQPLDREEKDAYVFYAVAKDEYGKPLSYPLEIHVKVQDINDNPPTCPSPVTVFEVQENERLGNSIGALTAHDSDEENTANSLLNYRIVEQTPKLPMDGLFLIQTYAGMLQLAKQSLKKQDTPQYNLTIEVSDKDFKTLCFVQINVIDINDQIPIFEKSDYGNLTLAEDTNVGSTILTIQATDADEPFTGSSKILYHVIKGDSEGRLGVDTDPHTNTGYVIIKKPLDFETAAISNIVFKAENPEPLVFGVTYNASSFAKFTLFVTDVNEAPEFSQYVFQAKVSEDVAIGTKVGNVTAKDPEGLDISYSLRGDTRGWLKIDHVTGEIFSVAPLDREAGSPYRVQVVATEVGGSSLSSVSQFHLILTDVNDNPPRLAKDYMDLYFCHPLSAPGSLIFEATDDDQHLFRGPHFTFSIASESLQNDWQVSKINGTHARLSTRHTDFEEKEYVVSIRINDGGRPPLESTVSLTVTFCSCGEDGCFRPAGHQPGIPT

[4] = target: T4, rhesus CDH17 overexpressed on HEK293 cells (HEK293-rhesus CDH17) (rhesus, UniProt A0A1D5R2B4 23-832); assay: flow cytometry, HEK293-rhesus CDH17 cells
T4 construct: whole, on cells
T4 sequence: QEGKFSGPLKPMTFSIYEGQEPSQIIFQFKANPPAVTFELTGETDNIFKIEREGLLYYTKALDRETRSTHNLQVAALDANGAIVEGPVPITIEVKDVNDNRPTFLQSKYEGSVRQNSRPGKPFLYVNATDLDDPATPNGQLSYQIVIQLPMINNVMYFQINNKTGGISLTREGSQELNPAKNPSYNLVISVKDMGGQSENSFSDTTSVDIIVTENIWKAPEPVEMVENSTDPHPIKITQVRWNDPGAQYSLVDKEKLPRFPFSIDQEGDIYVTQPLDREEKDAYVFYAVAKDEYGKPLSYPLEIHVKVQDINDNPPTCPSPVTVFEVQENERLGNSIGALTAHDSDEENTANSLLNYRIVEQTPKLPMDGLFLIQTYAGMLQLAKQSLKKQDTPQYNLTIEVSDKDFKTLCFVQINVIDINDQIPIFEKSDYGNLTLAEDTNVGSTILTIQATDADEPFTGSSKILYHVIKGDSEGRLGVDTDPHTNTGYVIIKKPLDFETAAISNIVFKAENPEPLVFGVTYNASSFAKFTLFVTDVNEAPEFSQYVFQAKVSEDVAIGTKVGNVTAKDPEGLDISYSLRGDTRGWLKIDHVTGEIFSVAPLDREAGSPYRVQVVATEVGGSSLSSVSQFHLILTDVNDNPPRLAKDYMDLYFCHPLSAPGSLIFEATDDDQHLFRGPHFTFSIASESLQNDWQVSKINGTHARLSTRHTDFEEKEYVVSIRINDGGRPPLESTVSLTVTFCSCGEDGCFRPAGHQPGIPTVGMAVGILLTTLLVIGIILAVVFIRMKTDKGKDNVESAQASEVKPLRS

T1 sequence (P22223 108-654 limits assumed): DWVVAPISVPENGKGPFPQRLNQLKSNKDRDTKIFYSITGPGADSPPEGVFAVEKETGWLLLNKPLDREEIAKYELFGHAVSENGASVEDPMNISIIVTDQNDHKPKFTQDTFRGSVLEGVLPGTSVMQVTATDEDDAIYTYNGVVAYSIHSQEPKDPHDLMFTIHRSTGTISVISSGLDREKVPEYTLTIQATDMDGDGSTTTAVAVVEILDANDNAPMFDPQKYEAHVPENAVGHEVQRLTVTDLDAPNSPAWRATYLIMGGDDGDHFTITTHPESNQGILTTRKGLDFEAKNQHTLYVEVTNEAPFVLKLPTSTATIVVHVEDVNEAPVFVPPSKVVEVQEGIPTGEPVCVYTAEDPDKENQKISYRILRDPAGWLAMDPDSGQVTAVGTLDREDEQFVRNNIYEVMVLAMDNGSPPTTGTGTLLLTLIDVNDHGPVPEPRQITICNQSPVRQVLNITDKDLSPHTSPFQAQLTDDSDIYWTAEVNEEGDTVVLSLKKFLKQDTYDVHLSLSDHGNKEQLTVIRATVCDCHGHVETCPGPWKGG

B1: 29H8D3-z12 (antibody, V domains shown)
VH: QVQLVQSGAEVKKPGASVKVSCKASGYTFTDHTIHWMRQRPGQGLEWIGYIYPRDGYTKYNEKFKDRATLTADTSTSTAYMELRSLRSDDTAVYYCARFYYGYWYFDVWGQGTTVTVSS
VL: DIVMTQSPLSLPVTPGEPASISCRSSKSLLRSNGNTYLYWFLQKPGQSPQVLIYRMSNLASGVPDRFSGSGSGTDFTLKISRVEAEDVGVYYCMQHLEYPFTFGQGTKLEIK
notes: Humanized, human IgG1 constant region; also called 29H8D3-z12 mAb
- binding result [1]: no binding (tested: titrated from 50 nM)
- binding result [2]: no binding (tested: titrated from 50 nM)
- EC50 [3]: 0.163 nM
- EC50 [4]: 0.225 nM

From patent EP4806514A2 (Lepu Biopharma Co., Ltd., dated 2025)
